Assay results: article PMC4900533

How the values were obtained:
[1] = immunoblot of PNGase F-treated MDCKII lysates, densitometry; details: glycan lost; control: wild type
[2] = cycloheximide chase, immunoblot, MDCKII; details: glycan lost; control: wild type
[3] = immunoblot after 24 h 2 μM MG132; details: glycan lost; control: wild type
[4] = immunoblot, high vs low glucose medium, MDCKII; details: glycan lost; control: wild type
[5] = confocal microscopy after 12 h cycloheximide; details: glycan lost; control: wild type
[6] = confocal microscopy, apical marker gp135, MDCKII; details: glycan lost; control: wild type
[7] = immunoblot of ABCC11 WT, with/without PNGase F, MDCKII; details: glycan lost; control: high glucose medium
[8] = immunoblot, ABCC11-EGFP in MDCKII, PNGase F-treated lysates; details: glycan lost; control: untreated cells
[9] = immunoblot, non-tagged ABCC11, adenovirus-infected MDCKII; details: glycan lost; control: untreated cells

Substance: ABCC11 (MRP8): Q838/844
- expression_or_secretion, percent_of_wt [1]: decreases
- degradation_or_half_life, half_life [2]: decreases, about 6.2 vs about 12
- other: MG132-sensitive degradation, fold_change [3]: increases, about 2-fold vs no significant difference
- other: glucose sensitivity of protein level [4]: abolishes
- degradation_or_half_life [5]: decreases

Substance: ABCC11 (MRP8): Q838
- expression_or_secretion, percent_of_wt [1]: no change
- localisation_or_trafficking [6]: no change

Substance: ABCC11 (MRP8): low glucose medium
- expression_or_secretion [7]: decreases

Substance: ABCC11 (MRP8): tunicamycin (0.8, 4.0 μg/mL)
- expression_or_secretion [8]: decreases

Substance: ABCC11 (MRP8): tunicamycin (4.0 μg/mL)
- expression_or_secretion, other: percent of untreated control [9]: decreases

Substance: ABCC11 (MRP8): Q844
- expression_or_secretion, percent_of_wt [1]: no change
- localisation_or_trafficking [6]: no change
